One experiment deals with T1, mouse PD-1 (mouse, UniProt Q02242 25-167, limits assumed).
T1 construct: also called mPD-1
T1 sequence (looked up): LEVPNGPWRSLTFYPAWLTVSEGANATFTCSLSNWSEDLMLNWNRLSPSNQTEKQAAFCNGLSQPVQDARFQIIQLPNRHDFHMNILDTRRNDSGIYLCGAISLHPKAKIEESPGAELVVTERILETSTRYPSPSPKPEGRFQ
The experiment can be described thus: PD-L1-Fc format, calibrated on PD-L1(wt)-Fc, method not stated.

Another experiment addresses T2, human PD-1 (human, UniProt Q15116 25-167, limits assumed).
T2 construct: also called hPD-1
The description is as above.

Experiment [1] addresses human PD-1 on cells (HEK-PD-1 reporter cells; activated PBMC) (human, UniProt Q15116 25-288). The experiment can be described thus: cell-based or functional assay.
The target of experiment [2] is T3, human IL-2 receptor (IL-2Rα, IL-2Rβ, IL-2Rγ) (human, UniProt P01589 22-272; P14784 27-551; P31785 23-369).
T3 sequence (looked up) 1: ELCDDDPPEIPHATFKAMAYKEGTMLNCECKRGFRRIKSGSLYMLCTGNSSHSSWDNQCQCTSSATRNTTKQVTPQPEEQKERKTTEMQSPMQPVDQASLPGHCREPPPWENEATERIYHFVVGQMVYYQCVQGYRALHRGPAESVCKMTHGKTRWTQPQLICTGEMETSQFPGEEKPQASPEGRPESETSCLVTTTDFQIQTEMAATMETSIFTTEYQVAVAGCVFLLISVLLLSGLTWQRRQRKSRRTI
T3 sequence (looked up) 2: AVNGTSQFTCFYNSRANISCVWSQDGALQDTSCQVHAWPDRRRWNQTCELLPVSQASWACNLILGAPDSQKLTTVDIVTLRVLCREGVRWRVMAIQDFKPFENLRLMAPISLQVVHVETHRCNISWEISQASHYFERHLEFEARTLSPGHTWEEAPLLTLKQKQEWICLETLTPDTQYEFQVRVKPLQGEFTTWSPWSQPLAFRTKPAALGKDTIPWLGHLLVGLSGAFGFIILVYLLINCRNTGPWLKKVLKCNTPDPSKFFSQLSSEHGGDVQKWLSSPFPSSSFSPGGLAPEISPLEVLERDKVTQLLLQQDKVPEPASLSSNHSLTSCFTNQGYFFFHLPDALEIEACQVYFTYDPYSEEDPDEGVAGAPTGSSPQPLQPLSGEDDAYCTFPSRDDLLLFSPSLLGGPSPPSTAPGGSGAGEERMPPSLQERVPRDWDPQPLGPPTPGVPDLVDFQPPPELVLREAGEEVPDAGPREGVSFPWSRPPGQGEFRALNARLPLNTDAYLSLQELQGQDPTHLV
T3 sequence (looked up) 3: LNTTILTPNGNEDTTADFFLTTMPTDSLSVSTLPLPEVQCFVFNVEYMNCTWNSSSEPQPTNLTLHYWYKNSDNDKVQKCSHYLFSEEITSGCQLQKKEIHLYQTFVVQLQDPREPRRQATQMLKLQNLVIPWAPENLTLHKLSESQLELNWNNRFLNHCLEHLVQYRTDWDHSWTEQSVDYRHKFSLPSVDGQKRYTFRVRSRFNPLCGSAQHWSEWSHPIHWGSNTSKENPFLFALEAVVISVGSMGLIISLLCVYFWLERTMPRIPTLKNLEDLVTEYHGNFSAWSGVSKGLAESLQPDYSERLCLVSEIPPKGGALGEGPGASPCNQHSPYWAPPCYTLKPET
The experiment can be described thus: cell-based or functional assay.

T2 sequence (Q15116 25-167 limits assumed): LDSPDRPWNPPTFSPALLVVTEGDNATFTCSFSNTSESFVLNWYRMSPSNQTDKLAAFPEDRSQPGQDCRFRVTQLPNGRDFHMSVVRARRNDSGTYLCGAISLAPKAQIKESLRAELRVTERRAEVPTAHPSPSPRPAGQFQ
human PD-1 on cells (HEK-PD-1 reporter cells; activated PBMC), sequence (Q15116 25-288): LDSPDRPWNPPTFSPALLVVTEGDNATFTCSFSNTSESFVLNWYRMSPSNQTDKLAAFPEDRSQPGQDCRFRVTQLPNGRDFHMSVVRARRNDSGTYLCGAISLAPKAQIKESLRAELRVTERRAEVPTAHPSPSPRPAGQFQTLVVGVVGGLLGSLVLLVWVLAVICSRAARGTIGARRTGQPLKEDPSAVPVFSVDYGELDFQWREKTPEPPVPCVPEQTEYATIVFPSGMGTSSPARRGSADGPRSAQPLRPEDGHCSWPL

B1: PD-L1(mut5)-Fc, I54Q/E58M/R113T/S117A/G119K (Fc fusion)
chain 1: FTVTVPKDLYVVEYGSNMTIECKFPVEKQLDLAALQVYWMMEDKNIIQFVHGEEDLKVQHSSYRQRARLLKDQLSLGNAALQITDVKLQDAGVYTCMIAYKGADYKRITVKVNAPYNKINQRILVVDPVTSEHELTCQAEGYPKAEVIWTSSDHQVLSGKTTTTNSKREEKLFNVTSTLRINTTTNEIFYCTFRRLDPEENHTAELVIPELPLAHPPNERDKTHTCPPCPAPEDEGGPSVFLFPPKPKDTLMISRTPEVTCVVVDVSHEDPEVKFNWYVDGVEVHNAKTKPREEQYNSTYRVVSVLTVLHQDWLNGKEYKCKVSNKALPAPIEKTISKAKGQPREPQVYVYPPSREEMTKNQVSLTCLVKGFYPSDIAVEWESNGQPENNYKTTPPVLDEDGSFALVSKLTVDKSRWQQGNVFSCSVMHEALHNHYTQKSLSLSPGK
chain 2: FTVTVPKDLYVVEYGSNMTIECKFPVEKQLDLAALQVYWMMEDKNIIQFVHGEEDLKVQHSSYRQRARLLKDQLSLGNAALQITDVKLQDAGVYTCMIAYKGADYKRITVKVNAPYNKINQRILVVDPVTSEHELTCQAEGYPKAEVIWTSSDHQVLSGKTTTTNSKREEKLFNVTSTLRINTTTNEIFYCTFRRLDPEENHTAELVIPELPLAHPPNERDKTHTCPPCPAPEKKGGPSVFLFPPKPKDTLMISRTPEVTCVVVDVSHEDPEVKFNWYVDGVEVHNAKTKPREEQYNSTYRVVSVLTVLHQDWLNGKEYKCKVSNKALPAPIEKTISKAKGQPREPQVYVLPPSREEMTKNQVSLLCLVKGFYPSDIAVEWESNGQPENRYMTWPPVLDSDGSFFLYSKLTVDKSRWQQGNVFSCSVMHEALHNHYTQKSLSLSPGK
One may read the Kd as the constant that tells how readily two partners part at equilibrium. Read a low Kd as higher affinity. B1: the equilibrium dissociation constant (Kd) in the experiment with mouse PD-1 was 1100 nM; with human PD-1, 1200 nM.

B2: PD-L1(mut6)-Fc, I54Q/E58M/R113T/M115L/G119K (Fc fusion)
chain 1: FTVTVPKDLYVVEYGSNMTIECKFPVEKQLDLAALQVYWMMEDKNIIQFVHGEEDLKVQHSSYRQRARLLKDQLSLGNAALQITDVKLQDAGVYTCLISYKGADYKRITVKVNAPYNKINQRILVVDPVTSEHELTCQAEGYPKAEVIWTSSDHQVLSGKTTTTNSKREEKLFNVTSTLRINTTTNEIFYCTFRRLDPEENHTAELVIPELPLAHPPNERDKTHTCPPCPAPEDEGGPSVFLFPPKPKDTLMISRTPEVTCVVVDVSHEDPEVKFNWYVDGVEVHNAKTKPREEQYNSTYRVVSVLTVLHQDWLNGKEYKCKVSNKALPAPIEKTISKAKGQPREPQVYVYPPSREEMTKNQVSLTCLVKGFYPSDIAVEWESNGQPENNYKTTPPVLDEDGSFALVSKLTVDKSRWQQGNVFSCSVMHEALHNHYTQKSLSLSPGK
chain 2: FTVTVPKDLYVVEYGSNMTIECKFPVEKQLDLAALQVYWMMEDKNIIQFVHGEEDLKVQHSSYRQRARLLKDQLSLGNAALQITDVKLQDAGVYTCLISYKGADYKRITVKVNAPYNKINQRILVVDPVTSEHELTCQAEGYPKAEVIWTSSDHQVLSGKTTTTNSKREEKLFNVTSTLRINTTTNEIFYCTFRRLDPEENHTAELVIPELPLAHPPNERDKTHTCPPCPAPEKKGGPSVFLFPPKPKDTLMISRTPEVTCVVVDVSHEDPEVKFNWYVDGVEVHNAKTKPREEQYNSTYRVVSVLTVLHQDWLNGKEYKCKVSNKALPAPIEKTISKAKGQPREPQVYVLPPSREEMTKNQVSLLCLVKGFYPSDIAVEWESNGQPENRYMTWPPVLDSDGSFFLYSKLTVDKSRWQQGNVFSCSVMHEALHNHYTQKSLSLSPGK
B2: the Kd with mouse PD-1 was determined as 420 nM; with human PD-1, 555 nM.

B3: PD-L1(mut2)-Fc, I54Q/E58M/R113T/M115L/S117A/G119K (Fc fusion)
chain 1: FTVTVPKDLYVVEYGSNMTIECKFPVEKQLDLAALQVYWMMEDKNIIQFVHGEEDLKVQHSSYRQRARLLKDQLSLGNAALQITDVKLQDAGVYTCLIAYKGADYKRITVKVNAPYNKINQRILVVDPVTSEHELTCQAEGYPKAEVIWTSSDHQVLSGKTTTTNSKREEKLFNVTSTLRINTTTNEIFYCTFRRLDPEENHTAELVIPELPLAHPPNERGGGGSGGGDKTHTCPPCPAPEDEGGPSVFLFPPKPKDTLMISRTPEVTCVVVDVSHEDPEVKFNWYVDGVEVHNAKTKPREEQYNSTYRVVSVLTVLHQDWLNGKEYKCKVSNKALPAPIEKTISKAKGQPREPQVYVYPPSREEMTKNQVSLTCLVKGFYPSDIAVEWESNGQPENNYKTTPPVLDEDGSFALVSKLTVDKSRWQQGNVFSCSVMHEALHNHYTQKSLSLSPGK
chain 2: FTVTVPKDLYVVEYGSNMTIECKFPVEKQLDLAALQVYWMMEDKNIIQFVHGEEDLKVQHSSYRQRARLLKDQLSLGNAALQITDVKLQDAGVYTCLIAYKGADYKRITVKVNAPYNKINQRILVVDPVTSEHELTCQAEGYPKAEVIWTSSDHQVLSGKTTTTNSKREEKLFNVTSTLRINTTTNEIFYCTFRRLDPEENHTAELVIPELPLAHPPNERGGGGSGGGDKTHTCPPCPAPEKKGGPSVFLFPPKPKDTLMISRTPEVTCVVVDVSHEDPEVKFNWYVDGVEVHNAKTKPREEQYNSTYRVVSVLTVLHQDWLNGKEYKCKVSNKALPAPIEKTISKAKGQPREPQVYVLPPSREEMTKNQVSLLCLVKGFYPSDIAVEWESNGQPENRYMTWPPVLDSDGSFFLYSKLTVDKSRWQQGNVFSCSVMHEALHNHYTQKSLSLSPGK
Turning to B3, the “IL-2 signal transduction, HEK-IL-2-PD-1” value in experiment [1] was under 0.1%. Moreover, the “IL-2 signal transduction, HEK-IL-2” value in experiment [2] is under 0.1%. Also, the Kd came to 120 nM with mouse PD-1 and 150 nM with human PD-1.

Source of the values: patent publication US20240392004A1 (IMMUNOWAKE, published 2024).
